Laboratory results taken from US20020098560.

Tests used:
[1] = test system: Recombinant TFPI-2 (novel human Kunitz-type inhibitor encoded by clone J-2-11, expressed in BHK570 cells and purified from conditioned medium)
[2] = biological target: T1, Recombinant TFPI-2 (novel human Kunitz-type inhibitor encoded by clone J-2-11, expressed in BHK570 cells and purified from conditioned medium)
T1 chain: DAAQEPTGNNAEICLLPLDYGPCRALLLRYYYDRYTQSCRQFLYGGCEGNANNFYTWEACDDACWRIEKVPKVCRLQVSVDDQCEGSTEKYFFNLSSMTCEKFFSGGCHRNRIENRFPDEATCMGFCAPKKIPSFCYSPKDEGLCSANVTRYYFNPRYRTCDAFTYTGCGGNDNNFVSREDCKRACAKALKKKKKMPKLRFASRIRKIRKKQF

Question: For Human factor Xa, which “amidolytic activity of 20 nM factor Xa towards chromogenic substrate S-2222 (absorbance at 405 nm)” value [1] is on record?
Answer: Recombinant TFPI-2 was shown to weakly inhibit the amidolytic activity of 20 nM factor Xa towards the chromogenic substrate S-2222 in a dose-dependent manner.

Question: Which “amidolytic activity of human thrombin towards chromogenic substrate S-2238 (absorbance at 405 nm)” value [1] does the source give for Human thrombin here?
Answer: Recombinant TFPI-2 was shown to have no effect on the amidolytic activity of human thrombin towards S-2238.

B1: Human factor VIIa/tissue factor complex (recombinant human factor VIIa with recombinant, truncated, human tissue factor apoprotein TF1-219) (protein)
chain 1: ANAFLEELRPGSLERECKEEQCSFEEAREIFKDAERTKLFWISYSDGDQCASSPCQNGGSCKDQLQSYICFCLPAFEGRNCETHKDDQLICVNENGGCEQYCSDHTGTKRSCRCHEGYSLLADGVSCTPTVEYPCGKIPILEKRNASKPQGRIVGGKVCPKGECPWQVLLLVNGAQLCGGTLINTIWVVSAAHCFDKIKNWRNLIAVLGEHDLSEHDGDEQSRRVAQVIIPSTYVPGTTNHDIALLRLHQPVVLTDHVVPLCLPERTFSERTLAFVRFSLVSGWGQLLDRGATALELMVLNVPRLMTQDCLQQSRKVGDSPNITEYMFCAGYSDGSKDSCKGDSGGPHATHYRGTWYLTGIVSWGQGCATVGHFGVYTRVSQYIEWLQKLMRSEPRPGVLLRAPFP
chain 2: SGTTNTVAAYNLTWKSTNFKTILEWEPKPVNQVYTVQISTKSGDWKSKCFYTTDTECDLTDEIVKDVKQTYLARVFSYPAGNVESTGSAGEPLYENSPEFTPYLETNLGQPTIQSFEQVGTKVNVTVEDERTLVRRNNTFLSLRDVFGKDLIYTLYYWKSSSSGKKTAKTNTNEFLIDVDKGENYCFSVQAVIPSRTVNRKSTDSPVECMGQEKGEFRE
Question: B1 was tested. Which “amidolytic activity of 20 nM factor VIIa-tissue factor towards chromogenic substrate S-2288 (absorbance at 405 nm)” value [2] did it give?
Answer: Recombinant TFPI-2 was shown to inhibit the amidolytic activity of 20 nM factor VIIa-tissue factor towards the chromogenic substrate S-2288 in a dose-dependent manner.
